{
  "source": "paper PMC4202109",
  "about": "(The FASEB Journal, 2014)",
  "binders": {"B1": {"name": "PFI1780w PHIST domain (as used in fluorescence polarization) (domain or fragment)", "chain": "SLSDEINKCDMKKYTAEEINEMINSSNEFINRNDMNIIFSYVHESEREKFKKVEENIFKFIQSIVETYKIPDEYKMRKFKFAHFEMQGYALKQEKFLLEYAFLSLNGKLCERKKFKEVLEYVKREWIEFRKSMFDVWKEKLASEFREHGEMLNQKRKLKQHEL"}},
  "target": "Fluorescently labeled ATS (intracellular segment) of PfEMP1 variant PF08_0141, full-length segment (P. falciparum, 5-FAM label)",
  "assay": "fluorescence polarisation",
  "data": [
    {"binder": "B1", "values": [
      {"measurement": "fold lower affinity than PFE1605w", "result": "~30", "unit": "fold"}
    ]}
  ]
}
